Several values for one entry are separate records, joined by “and”; a condition that tells them apart may be missing. Equal values may be shown once.
Key:
TOX [1] = target: TOX (UniProt Q66JW3); assay: anti-TOX IP from EL4 nuclear extract, LC-MS/MS, MiST vs IgG control
TOX [2] = target: TOX (UniProt Q66JW3); assay: TOX co-IP from EL4 nuclear extract, LC-MS/MS, MiST
TOX [3] = target: TOX (UniProt Q66JW3); assay: TOX IP-MS, EL4 nuclear extract, MiST; row of the bait itself

Sequence of Tmem160 (Q9D938 97-188): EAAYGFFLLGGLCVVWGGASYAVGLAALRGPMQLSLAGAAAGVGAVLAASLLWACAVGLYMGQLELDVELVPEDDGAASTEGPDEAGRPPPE
Sequence of TOX (Q66JW3 whole entry): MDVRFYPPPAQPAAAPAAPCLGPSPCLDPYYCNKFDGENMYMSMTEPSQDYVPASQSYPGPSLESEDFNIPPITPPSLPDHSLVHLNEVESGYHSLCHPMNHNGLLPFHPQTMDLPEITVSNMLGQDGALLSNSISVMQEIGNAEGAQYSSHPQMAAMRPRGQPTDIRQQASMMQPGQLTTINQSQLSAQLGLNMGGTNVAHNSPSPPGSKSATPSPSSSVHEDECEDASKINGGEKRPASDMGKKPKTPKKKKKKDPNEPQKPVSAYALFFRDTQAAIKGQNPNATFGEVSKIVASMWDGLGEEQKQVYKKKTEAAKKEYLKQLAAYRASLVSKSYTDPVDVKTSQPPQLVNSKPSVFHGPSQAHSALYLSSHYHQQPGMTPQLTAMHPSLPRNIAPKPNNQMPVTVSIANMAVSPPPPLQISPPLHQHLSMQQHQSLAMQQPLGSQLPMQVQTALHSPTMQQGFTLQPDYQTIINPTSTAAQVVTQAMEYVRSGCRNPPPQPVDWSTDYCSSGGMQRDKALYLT
Sequence of Utp11l (Q9CZJ1 whole entry): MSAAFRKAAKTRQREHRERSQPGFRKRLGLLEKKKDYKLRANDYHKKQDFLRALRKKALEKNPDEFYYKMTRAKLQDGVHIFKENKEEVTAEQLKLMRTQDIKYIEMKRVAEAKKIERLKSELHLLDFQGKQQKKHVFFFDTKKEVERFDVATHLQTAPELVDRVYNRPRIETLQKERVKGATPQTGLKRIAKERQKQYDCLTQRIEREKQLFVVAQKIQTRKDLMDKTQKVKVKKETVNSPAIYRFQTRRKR

| Substance | Abundance (TOX [1]) | MiST Score (TOX [1]) | Reproducibility (TOX [1]) | Specificity (TOX [1]) | Abundance (TOX [2]) | MiST Score (TOX [2]) | Reproducibility (TOX [2]) | Specificity (TOX [2]) | other results |
| --- | --- | --- | --- | --- | --- | --- | --- | --- | --- |
| Abcf1 (from UniProt Q6P542 1-837) | 1.12e-05 | 0.76 | 0.747 | 0.773 | – | – | – | – | – |
| Abcf2 (from UniProt Q99LE6 1-628) | 2.89e-05 | 0.756 | 0.917 | 0.69 | – | – | – | – | – |
| Actr5 (from UniProt Q80US4 1-605) | 9e-06 | 0.753 | 0.979 | 0.658 | – | – | – | – | – |
| Ap2a1 (from UniProt P17426 1-977) | 2.47e-06 | 0.754 | 0.846 | 0.719 | – | – | – | – | – |
| Bclaf1 (from UniProt Q8K019 1-919) | 6.73e-05 | 0.756 | 0.872 | 0.71 | – | – | – | – | – |
| Ccdc86 (from UniProt Q9JJ89 1-426) | 3.82e-05 | 0.751 | 0.964 | 0.662 | – | – | – | – | – |
| Cnot10 (from UniProt Q8BH15 2-744) | 8.51e-06 | 0.751 | 0.946 | 0.669 | – | – | – | – | – |
| Cwc15 (from UniProt Q9JHS9 2-229) | 9.35e-05 | 0.756 | 0.814 | 0.736 | – | – | – | – | – |
| Dld (from UniProt O08749 36-509) (enzyme) | 1.87e-05 | 0.76 | 0.898 | 0.704 | – | – | – | – | – |
| Ebna1bp2 (from UniProt Q9D903 1-306) | 9.4e-05 | 0.752 | 0.984 | 0.654 | – | – | – | – | – |
| Eif3a (from UniProt P23116 1-1344) | 1.17e-05 | 0.764 | 0.795 | 0.757 | – | – | – | – | – |
| Gatad2a (from UniProt Q8CHY6 1-629) | 1.98e-05 | 0.76 | 0.908 | 0.7 | – | – | – | – | – |
| Gatad2b (from UniProt Q8VHR5 1-594) | 1.65e-05 | 0.752 | 0.863 | 0.708 | – | – | – | – | – |
| Nol7 (from UniProt Q9D7Z3 1-254) | 0.000128 | 0.757 | 0.972 | 0.666 | – | – | – | – | – |
| Orc3 (from UniProt Q9JK30 1-715) | – | – | – | – | 7.41e-07 | 0.848 | 0.528 | 1 | – |
| Pabpn1 (from UniProt Q8CCS6 2-302) | 8.22e-05 | 0.759 | 0.992 | 0.66 | – | – | – | – | – |
| Paxbp1 (from UniProt P58501 1-919) | 1.83e-06 | 0.75 | 0.516 | 0.862 | – | – | – | – | – |
| Pnn (from UniProt O35691 2-725) | 7.35e-05 | 0.762 | 0.681 | 0.805 | – | – | – | – | – |
| Pop1 | 2.18e-06 | 0.754 | 0.906 | 0.693 | – | – | – | – | – |
| Raver1 (from UniProt Q9CW46 2-748) | 4.89e-05 | 0.762 | 0.839 | 0.734 | – | – | – | – | – |
| Rbm25 (from UniProt B2RY56 1-838) | 9.24e-06 | 0.755 | 0.601 | 0.831 | – | – | – | – | – |

| Substance | Abundance (TOX [1]) | MiST Score (TOX [1]) | Reproducibility (TOX [1]) | Specificity (TOX [1]) | Abundance (TOX [2]) | MiST Score (TOX [2]) | Reproducibility (TOX [2]) | Specificity (TOX [2]) | other results |
| --- | --- | --- | --- | --- | --- | --- | --- | --- | --- |
| Rbm28 (from UniProt Q8CGC6 2-750) | – | – | – | – | 8.77e-06 | 0.855 | 0.958 | 0.815 | – |
| Rrbp1 (from UniProt Q99PL5 1-1605) | – | – | – | – | 1.36e-06 | 0.834 | 0.675 | 0.913 | – |
| Rrp1 (from UniProt P56183 1-494) | 9e-06 | 0.753 | 0.976 | 0.659 | – | – | – | – | – |
| Rsl1d1 (from UniProt Q8BVY0 1-452) | 0.000211 | 0.759 | 0.984 | 0.665 | – | – | – | – | – |
| Samd1 (from UniProt D3YXK1 1-519) | – | – | – | – | 2.47e-06 | 0.829 | 0.886 | 0.811 | – |
| Skap2 (from UniProt Q3UND0 1-358) | – | – | – | – | 4.76e-06 | 0.845 | 0.516 | 1 | – |
| Soat1 (from UniProt Q61263 1-540) (enzyme) | 5.75e-06 | 0.762 | 0.249 | 1 | – | – | – | – | – |
| Sorbs1 (from UniProt Q62417 1-1290) | – | – | – | – | 1.52e-05 | 0.829 | 0.997 | 0.76 | – |
| Sptbn1 (from UniProt Q62261 2-2363) | – | – | – | – | 1.19e-05 and 1.09e-05 | 0.84 | 0.996 | 0.777 | – |
| Sugp1 (from UniProt Q8CH02 1-643) | – | – | – | – | 7.71e-06 | 0.832 | 0.906 | 0.807 | – |
| Thoc6 (from UniProt Q5U4D9 1-341) | 3.97e-05 | 0.76 | 0.994 | 0.661 | – | – | – | – | – |
| Tmem160 | – | – | – | – | 3.49e-05 | 0.846 | 0.94 | 0.812 | – |
| Tmem214 (from UniProt Q8BM55 2-687) | – | – | – | – | 1.26e-06 | 0.85 | 0.532 | 1 | – |
| Top3b (from UniProt Q9Z321 1-862) (enzyme) | 8.1e-07 | 0.752 | 0.541 | 0.854 | – | – | – | – | – |
| Trrap (from UniProt Q80YV3 1-2565) | – | – | – | – | 9.36e-08 | 0.847 | 0.524 | 1 | – |
| Utp11l | – | – | – | – | 4.22e-05 | 0.856 | 0.553 | 1 | – |
| Wdr82 (from UniProt Q8BFQ4 1-313) | – | – | – | – | 0.00013 | 0.846 | 0.951 | 0.807 | – |
| Yme1l1 (from UniProt O88967 1-715) (enzyme) | 1.45e-05 | 0.75 | 0.988 | 0.65 | – | – | – | – | – |
| Zcchc8 (from UniProt Q9CYA6 2-709) | – | – | – | – | 2.87e-06 | 0.834 | 0.483 | 1 | – |
| Zmym4 (from UniProt A2A791 2-1549) | – | – | – | – | 1.92e-06 | 0.841 | 0.503 | 1 | – |
| anti-TOX antibody (Abcam, ab155768) | – | – | – | – | – | – | – | – | Abundance (TOX [3]): 0.00704; MiST Score (TOX [3]): 0.976; Reproducibility (TOX [3]): 0.964; Specificity (TOX [3]): 0.99 |

Source: US20210071139A1
